Results from article PMC8888484, “Ubr1-induced selective endophagy/autophagy protects against the endosomal and Ca^2+-induced proteostasis disease stress” (Cellular and Molecular Life Sciences: CMLS, 2022).

T1: HA-MLC1-S280L-Bir* (human (by the printed GeneID 23209; the …, UniProt Q15049 1-377, S280L)
T1 construct: MLC1, GeneID 23209, disease-causing variant S280L, as a chimera with Bir*; also called SL-b
T1 sequence (looked up): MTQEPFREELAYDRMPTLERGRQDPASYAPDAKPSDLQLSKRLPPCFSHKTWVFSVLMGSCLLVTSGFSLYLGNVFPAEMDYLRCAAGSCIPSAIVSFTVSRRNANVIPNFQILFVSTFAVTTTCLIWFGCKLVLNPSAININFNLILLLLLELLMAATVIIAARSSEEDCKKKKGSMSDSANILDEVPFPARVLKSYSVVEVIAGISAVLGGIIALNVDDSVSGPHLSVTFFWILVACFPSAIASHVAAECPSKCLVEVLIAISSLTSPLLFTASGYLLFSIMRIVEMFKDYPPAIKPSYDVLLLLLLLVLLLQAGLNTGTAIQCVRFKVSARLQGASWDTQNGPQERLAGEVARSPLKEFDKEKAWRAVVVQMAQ

B1: endogenous Ubr1 (enzyme, UniProt Q8IWV7 1-1749, looked up)
chain: MADEEAGGTERMEISAELPQTPQRLASWWDQQVDFYTAFLHHLAQLVPEIYFAEMDPDLEKQEESVQMSIFTPLEWYLFGEDPDICLEKLKHSGAFQLCGRVFKSGETTYSCRDCAIDPTCVLCMDCFQDSVHKNHRYKMHTSTGGGFCDCGDTEAWKTGPFCVNHEPGRAGTIKENSRCPLNEEVIVQARKIFPSVIKYVVEMTIWEEEKELPPELQIREKNERYYCVLFNDEHHSYDHVIYSLQRALDCELAEAQLHTTAIDKEGRRAVKAGAYAACQEAKEDIKSHSENVSQHPLHVEVLHSEIMAHQKFALRLGSWMNKIMSYSSDFRQIFCQACLREEPDSENPCLISRLMLWDAKLYKGARKILHELIFSSFFMEMEYKKLFAMEFVKYYKQLQKEYISDDHDRSISITALSVQMFTVPTLARHLIEEQNVISVITETLLEVLPEYLDRNNKFNFQGYSQDKLGRVYAVICDLKYILISKPTIWTERLRMQFLEGFRSFLKILTCMQGMEEIRRQVGQHIEVDPDWEAAIAIQMQLKNILLMFQEWCACDEELLLVAYKECHKAVMRCSTSFISSSKTVVQSCGHSLETKSYRVSEDLVSIHLPLSRTLAGLHVRLSRLGAVSRLHEFVSFEDFQVEVLVEYPLRCLVLVAQVVAEMWRRNGLSLISQVFYYQDVKCREEMYDKDIIMLQIGASLMDPNKFLLLVLQRYELAEAFNKTISTKDQDLIKQYNTLIEEMLQVLIYIVGERYVPGVGNVTKEEVTMREIIHLLCIEPMPHSAIAKNLPENENNETGLENVINKVATFKKPGVSGHGVYELKDESLKDFNMYFYHYSKTQHSKAEHMQKKRRKQENKDEALPPPPPPEFCPAFSKVINLLNCDIMMYILRTVFERAIDTDSNLWTEGMLQMAFHILALGLLEEKQQLQKAPEEEVTFDFYHKASRLGSSAMNIQMLLEKLKGIPQLEGQKDMITWILQMFDTVKRLREKSCLIVATTSGSESIKNDEITHDKEKAERKRKAEAARLHRQKIMAQMSALQKNFIETHKLMYDNTSEMPGKEDSIMEEESTPAVSDYSRIALGPKRGPSVTEKEVLTCILCQEEQEVKIENNAMVLSACVQKSTALTQHRGKPIELSGEALDPLFMDPDLAYGTYTGSCGHVMHAVCWQKYFEAVQLSSQQRIHVDLFDLESGEYLCPLCKSLCNTVIPIIPLQPQKINSENADALAQLLTLARWIQTVLARISGYNIRHAKGENPIPIFFNQGMGDSTLEFHSILSFGVESSIKYSNSIKEMVILFATTIYRIGLKVPPDERDPRVPMLTWSTCAFTIQAIENLLGDEGKPLFGALQNRQHNGLKALMQFAVAQRITCPQVLIQKHLVRLLSVVLPNIKSEDTPCLLSIDLFHVLVGAVLAFPSLYWDDPVDLQPSSVSSSYNHLYLFHLITMAHMLQILLTVDTGLPLAQVQEDSEEAHSASSFFAEISQYTSGSIGCDIPGWYLWVSLKNGITPYLRCAALFFHYLLGVTPPEELHTNSAEGEYSALCSYLSLPTNLFLLFQEYWDTVRPLLQRWCADPALLNCLKQKNTVVRYPRKRNSLIELPDDYSCLLNQASHFRCPRSADDERKHPVLCLFCGAILCSQNICCQEIVNGEEVGACIFHALHCGAGVCIFLKIRECRVVLVEGKARGCAYPAPYLDEYGETDPGLKRGNPLHLSRERYRKLHLVWQQHCIIEEIARSQETNQMLFGFNWQLL
modifications: biotinylated in cells by MLC1-Bir*
notes: Ubr1, endogenous, detected with anti-Ubr1 (Abcam)

Columns and labels:
[1] = molecular target: mutants (MLC1 mutants of Fig. 3A); experiment: co-IP; cell surface immunoprecipitation (cs-IP): anti-GlialCAM Ab bound to live HeLa cells 45 min on ice, unbound Ab washed off, lysis (0.4% NP-40 in co-IP assays), MLC1/GlialCAM complex precipitated, Western blot; signals normalised to precipitated MLC1; for Fig. 7G cells with siUbr1 or siNT and Flag-Ubr1-wt or -CI
[2] = molecular target: T1, HA-MLC1-S280L-Bir*; experiment: proximity labelling; proximity biotinylation with MLC1-Bir* chimera as bait, 50 µM biotin, cs-IP with anti-GlialCAM Ab, biotinylated proteins recovered on streptavidin/neutravidin beads, Western blot for Ubr1; normalised for the PM amount of MLC1; conditions: partners not purified

Molecule | fold association against MLC1-wt [1] [fold] | fold biotinylation against MLC1-wt [2] [fold]
CHIP (C-terminus of Hsc70-interacting protein) (from UniProt Q9UNE7 1-303) | 2 to 5 | –
B1 | – | ~8
